Data set [1] has as its system N[C@@H](CC(=O)O)C(=O)Nc1ccc([N+](=O)[O-])cc1. Briefly: purified protein. The following applies: 10 mM Tris-HCl, pH 7.5, 50 °C.
The subject of data set [2] is N[C@@H](CCC(=O)O)C(=O)Nc1ccc([N+](=O)[O-])cc1. Briefly: purified protein. The following applies: 10 mM Tris-HCl, pH 7.5, 50 °C.

What is called Km is the concentration of substrate that gives half-maximal velocity. Turning to “bDNPEP (recombinant bovine aspartyl aminopeptidase) (Bos taurus)”, the Km in data set [1] came to 389 µM; in data set [2] it was 314 µM.

With “cDNPEP (recombinant chicken aspartyl aminopeptidase) (Gallus gallus)”, the Km was 767 µM in data set [1] and 137 µM in data set [2].
